Patent US20190002534A1 (UNIVERSITY OF MASSACHUSETTS, published 2019)

B1: anti-rabies virus human monoclonal antibody 17C7 (antibody, V domains shown)
VH: QVQLVESGGGVVQPGRSLRLSCAASGFTFSTYAMHWVRQAPGKGLEWVAVVSYDGRTKDYADSVKGRFTISRDNSKNTLYLQMNSLRTEDTAVYFCARERFSGAYFDYWGQGTLVTVSS
VL: EIVLTQSPATLSLSPGERATLSCRASQSVSSYLAWYQQKPGQAPRLLIYDASNRATGIPARFSGSGSGTDFTLTISSLEPEDFAVYSCQQRNNWPPTFGGGTKVEIK
B2: anti-rabies virus human monoclonal antibody 2B10 (antibody, V domains shown)
VH: EVQLVQSGGGLVHPGGSLRLSCAGSGFTFSYFAMHWVRQAPGKGLEWVSTIGTGGGTYYADSVKGRFTISRDNAKNSLYLQMNSLRAEDMAVYYCARDNALRSFDWLFYSFDYWGQGTLVTVSS
VL: EIVLTQSPGTLSLSPGERATLSCRASQSISSSYLAWYQQKPGQAPRLLIYGASSRATGIPDRFSGSGSGTDFTLTISRLEPEDFAVYYCQRYGSSYTFGQGTKLEIK

How the values were obtained:
[1] = molecular target: T1, G glycoprotein of rabies virus street isolate DR Brazil (rabies virus, isolate DR Brazil …); assay: cell-based or functional assay
[2] = molecular target: T1, G glycoprotein of rabies virus street …; assay: cell-based or functional assay; remark: listed apart in the source

| Binder | EC50 neutralization by RFFIT [1] | EC50 neutralization by RFFIT (Test A) [2] |
| --- | --- | --- |
| B1 | 0.222 µg/mL | 0.222 µg/mL |
| B2 | 0.004 µg/mL | 0.004 µg/mL |
